What is called Kd is the constant that tells how readily two partners part at equilibrium. Read a low Kd as a tighter complex.

Consider 2 substances from PMC6122992.

The test concerns the target rhodamine-labeled cyclic β-hairpin peptide (human). The test is described as follows: fluorescence polarisation. On the technique in general: Fluorescence polarisation rises when a labelled molecule tumbles more slowly, as on binding a larger partner.

In turn, “recombinant Ssa1 (from UniProt P10591 1-642) (natural protein)” displayed a Kd of 3.5 µM. Then “recombinant Ydj1 (from UniProt P25491 1-409) (natural protein)”, with 46.8 µM.
